Results: article PMC12416549 (2024)
Changes are numbered by the printed parent chain. In names and notes the source's numbering stands.

T1: TNFR1 (Homo sapiens, UniProt P19438)
T1 chain: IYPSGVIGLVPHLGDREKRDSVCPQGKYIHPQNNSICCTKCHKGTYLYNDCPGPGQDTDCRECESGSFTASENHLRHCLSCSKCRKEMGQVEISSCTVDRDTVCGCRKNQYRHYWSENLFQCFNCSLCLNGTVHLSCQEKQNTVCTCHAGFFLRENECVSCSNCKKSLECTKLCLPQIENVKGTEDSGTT

B1: K15I (designed binder)
chain: SMEEEVEKAAKEYEIKKKEAIEKHLEKLKAKDKEAAERFLKELEEAAKEYAKDEAKTMSEEEAKRRAKKYKEKVLLSELSEEEQKEIKEAEEKLVRTILKYVEEAAK
B2: E34L (designed binder)
chain: B1 chain with I15K, E34L
B3: K88W (designed binder)
chain: B1 chain with I15K, K88W
B4: A46C (designed binder)
chain: B1 chain with I15K, A46C
B5: E54T (designed binder)
chain: B1 chain with I15K, E54T
B6: E60G (designed binder)
chain: B1 chain with I15K, E60G
B7: K88E (designed binder)
chain: B1 chain with I15K, K88E
B8: A106Q (designed binder)
chain: B1 chain with I15K, A106Q
B9: L25V (designed binder)
chain: B1 chain with I15K, L25V
B10: V74E (designed binder)
chain: B1 chain with I15K, V74E
B11: E61R (designed binder)
chain: B1 chain with I15K, E61R
B12: L43R (designed binder)
chain: B1 chain with I15K, L43R
B13: E4D (designed binder)
chain: B1 chain with E4D, I15K
B14: M58L (designed binder)
chain: B1 chain with I15K, M58L
B15: M2A (designed binder)
chain: B1 chain with M2A, I15K
B16: A36F (designed binder)
chain: B1 chain with I15K, A36F
B17: R38N (designed binder)
chain: B1 chain with I15K, R38N
B18: L40E (designed binder)
chain: B1 chain with I15K, L40E
B19: A35W (designed binder)
chain: B1 chain with I15K, A35W
B20: E61C (designed binder)
chain: B1 chain with I15K, E61C
B21: K41I (designed binder)
chain: B1 chain with I15K, K41I
B22: A36S (designed binder)
chain: B1 chain with I15K, A36S

Molecular target: T1, TNFR1
Experiment: yeast display SC50

Binder	apparent Kd (screen)
B1	0.869 nM
B2	0.446 nM
B3	0.49 nM
B4	1.86 nM
B5	12.5 nM
B6	1.54 nM
B7	0.49 nM
B8	2.05 nM
B9	1.27 nM
B10	0.304 nM
B11	2.48 nM
B12	13.8 nM
B13	0.446 nM
B14	2.73 nM
B15	0.49 nM
B16	1.27 nM
B17	2.48 nM
B18	0.49 nM
B19	1.86 nM
B20	1.86 nM
B21	0.539 nM
B22	1.05 nM
